Numbered stars: 1 amine (or outer) side, 2 acyl side, 3 side chain; on linkers, the order of the positions; unused ones are H or OH. Bridge positions count the residues as written; N and C are the ends. Side chains are listed from the residue outwards. Ends that are not written are not given here. * marks the point of attachment. C20 diacid = O=C(O)CCCCCCCCCCCCCCCCCCC(=O)*; γGlu = O=C(O)[C@H](CCC(=O)[*:2])N[*:1]
T1: human calcitonin receptor (human, UniProt P30988 25-474)
T1 sequence (looked up): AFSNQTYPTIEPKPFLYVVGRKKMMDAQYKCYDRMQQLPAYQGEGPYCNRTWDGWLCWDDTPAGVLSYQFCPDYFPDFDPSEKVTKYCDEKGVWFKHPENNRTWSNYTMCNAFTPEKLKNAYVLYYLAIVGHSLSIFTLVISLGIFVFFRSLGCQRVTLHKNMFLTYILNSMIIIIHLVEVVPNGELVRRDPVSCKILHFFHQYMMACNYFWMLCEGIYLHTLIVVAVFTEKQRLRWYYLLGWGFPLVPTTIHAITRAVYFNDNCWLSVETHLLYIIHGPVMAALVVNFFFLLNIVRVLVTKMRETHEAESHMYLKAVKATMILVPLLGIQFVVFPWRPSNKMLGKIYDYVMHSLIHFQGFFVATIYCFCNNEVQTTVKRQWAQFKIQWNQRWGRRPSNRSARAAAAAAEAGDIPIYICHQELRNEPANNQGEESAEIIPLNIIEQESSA

T2: rat calcitonin receptor (rat, UniProt P32214 25-516)
T2 construct: whole, on cells; Used as membranes prepared from transiently transfected BHK tk'ts 13 cells (Assay VIII); also called rCTR; rat calcitonin (a) receptor
T2 sequence (looked up): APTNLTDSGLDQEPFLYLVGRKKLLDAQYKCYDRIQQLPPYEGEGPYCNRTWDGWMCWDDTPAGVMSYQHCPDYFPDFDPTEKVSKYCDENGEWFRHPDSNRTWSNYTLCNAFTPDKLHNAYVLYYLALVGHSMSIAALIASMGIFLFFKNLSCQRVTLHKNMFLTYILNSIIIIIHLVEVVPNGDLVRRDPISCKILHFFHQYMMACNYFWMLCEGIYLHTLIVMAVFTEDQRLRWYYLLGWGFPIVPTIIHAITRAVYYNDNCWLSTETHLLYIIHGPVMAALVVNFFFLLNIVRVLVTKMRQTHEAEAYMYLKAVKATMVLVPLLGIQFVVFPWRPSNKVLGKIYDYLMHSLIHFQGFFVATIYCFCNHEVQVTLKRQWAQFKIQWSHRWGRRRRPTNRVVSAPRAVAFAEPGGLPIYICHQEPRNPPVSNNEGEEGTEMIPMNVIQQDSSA

T3: human calcitonin receptor (human, UniProt P30988 25-474)
T3 construct: whole, on cells; Assayed as cell membranes of BHK tk'ts 13 cells stably transfected with the human calcitonin receptor (Assay VII); also called hCTR; hCT
T3 sequence (looked up): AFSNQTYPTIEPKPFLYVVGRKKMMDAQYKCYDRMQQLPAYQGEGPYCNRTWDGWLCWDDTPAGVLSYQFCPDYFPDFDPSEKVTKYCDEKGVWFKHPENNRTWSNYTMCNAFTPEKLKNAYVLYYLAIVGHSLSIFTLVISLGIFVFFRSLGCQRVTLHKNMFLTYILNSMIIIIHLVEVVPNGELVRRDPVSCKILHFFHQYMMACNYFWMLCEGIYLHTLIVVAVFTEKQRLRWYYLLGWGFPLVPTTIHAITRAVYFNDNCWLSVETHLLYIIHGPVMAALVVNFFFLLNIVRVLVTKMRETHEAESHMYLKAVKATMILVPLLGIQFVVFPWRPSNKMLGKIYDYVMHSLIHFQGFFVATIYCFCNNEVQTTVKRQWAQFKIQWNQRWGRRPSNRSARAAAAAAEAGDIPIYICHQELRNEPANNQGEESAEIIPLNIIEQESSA

T4: human amylin receptor (amylin 3(a) receptor: human calcitonin receptor co-expressed with RAMP-3) (human, UniProt P30988 25-474; O60896 24-148, limits assumed)
T4 construct: whole, on cells; Assayed as cell membranes of BHK570 Amylin 3(a)/CRE-luc cells (Assay V); also called hAmylin-R; hAmylinR
T4 sequence (looked up) 1: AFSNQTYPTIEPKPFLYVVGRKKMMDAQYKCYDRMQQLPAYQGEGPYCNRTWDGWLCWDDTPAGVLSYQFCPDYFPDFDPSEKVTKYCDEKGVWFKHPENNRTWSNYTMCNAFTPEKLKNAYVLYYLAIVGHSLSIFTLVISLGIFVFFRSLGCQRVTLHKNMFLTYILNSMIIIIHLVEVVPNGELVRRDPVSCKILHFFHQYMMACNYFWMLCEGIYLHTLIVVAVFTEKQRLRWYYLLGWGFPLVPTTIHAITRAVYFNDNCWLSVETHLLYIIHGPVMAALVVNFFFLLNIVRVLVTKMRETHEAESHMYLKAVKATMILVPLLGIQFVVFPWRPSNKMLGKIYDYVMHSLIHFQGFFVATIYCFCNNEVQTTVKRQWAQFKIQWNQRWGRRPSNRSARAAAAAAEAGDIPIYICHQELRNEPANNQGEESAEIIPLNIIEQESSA
T4 sequence (looked up) 2: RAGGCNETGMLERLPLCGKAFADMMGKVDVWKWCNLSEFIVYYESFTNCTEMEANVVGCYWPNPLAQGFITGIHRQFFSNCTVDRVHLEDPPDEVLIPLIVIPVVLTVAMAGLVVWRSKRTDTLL


Experiments:
[1] = target: T1, human calcitonin receptor; assay: cell-based or functional assay
[2] = target: T2, rat calcitonin receptor; assay: SPA competition binding, displacement of 125I-calcitonin from membranes of BHK tk'ts 13 cells with rat calcitonin receptor (Assay VIII)
[3] = target: T3, human calcitonin receptor; assay: IC50 at hCTR divided by IC50 at hAmylin-R (SPA competition assays V and VII)
Procedure, shortened: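 Membranes (35 ng/μL final) + SPA beads, 50 mM Hepes pH 7.4 buffer with 1 mM CaCl2, 5 mM MgCl₂, 0.1% OA, 0.02% Tween20; 120 min, 25° C, shaking; centrifuged, counted; IC₅₀ by one-site binding competition.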

[4] = target: T4, human amylin receptor (amylin 3(a) …); assay: SPA competition vs 125I-rat amylin, membranes of BHK cells with human amylin 3(a) receptor (Assay V)
Method: The binding assay was performed using scintillation proximity assay (SPA) beads (RPNQ0001) from PerkinElmer and cell membranes from the Amylin 3(a)/CRE-luc cells (as described in Assay (II)) were used. Membranes were prepared in the following way; the cells were rinsed with PBS and incubated with Versene for approximately 5 min before harvesting. The cells were flushed with PBS and the cell-suspension was centrifuged for 5 min at 1000 rpm. Cells were homogenized (ultrathurrax) in a buffer containing 20 mM Na-HEPES and 10 mM EDTA (pH 7.4) and centrifuged at 20.000 rpm for 15 min. The resulting pellet was resuspended, homogenized and centrifuged (20.000 rpm, 15 min) in a buffer containing 20 mM Na-HEPES and 0.1 mM EDTA (pH 7.4, buffer 2). The resulting pellet was resuspended in buffer 2 and protein concentration was measured (BCA protein Assay, Pierce). The homogenate was kept cold during the whole procedure. The membranes were kept at −80° C. until use. The assay was performed in a 384 well Optiplate (PerkinElmer) in a total volume of 40 ul. Membranes were mixed with SPA beads. Final concentration of membranes 35 ng/μL final and SPA beads was 0.05 mg/well. […] Samples were analyzed on TopCounter™ (Packard). The IC₅₀ was calculated using (one site binding competition analysis) GraphPad Prism5 as a measure of receptor affinity.

[5] = target: T3, human calcitonin receptor; assay: SPA competition vs 125I-calcitonin, membranes of BHK cells with human calcitonin receptor (Assay VII)
Procedure, shortened: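 BHK hCTR membranes 35 ng/μL + SPA beads 0.05 mg/well; buffer 50 mM Hepes pH 7.4, 1 mM CaCl2, 5 mM MgCl₂, 0.1% OA, 0.02% Tween20. 120 min, 25° C., shaking. Scintillation count; IC50 by one-site binding competition.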

| Binder | hCTR funct. EC50 (CRE luciferase reporter, BHK cells) [1] | IC50 [2] | Ratio hCT/hAmylin binding [3] | IC50 [4] | IC50 [5] |
| --- | --- | --- | --- | --- | --- |
| {C20 diacid-γGlu}-KCNTATCATQRLAEFLRHSSPNFGAIPSSTNVGHNTY-NH2 (disulfide 2-7; SMILES CC[C@H](C)[C@H](NC(=O)[C@H](C)NC(=O)CNC(=O)[C@H](Cc1ccccc1)NC(=O)[C@H](CC(N)=O)NC(=O)[C@@H]1CCCN1C(=O)[C@H](CO)NC(=O)[C@H](CO)NC(=O)[C@H](Cc1c[nH]cn1)NC(=O)[C@H](CCCNC(=N)N)NC(=O)[C@H](CC(C)C)NC(=O)[C@H](Cc1ccccc1)NC(=O)[C@H](CCC(=O)O)NC(=O)[C@H](C)NC(=O)[C@H](CC(C)C)NC(=O)[C@H](CCCNC(=N)N)NC(=O)[C@H](CCC(N)=O)NC(=O)[C@@H](NC(=O)[C@H](C)NC(=O)[C@@H]1CSSC[C@H](NC(=O)[C@H](CCCCN)NC(=O)CC[C@H](NC(=O)CCCCCCCCCCCCCCCCCCC(=O)O)C(=O)O)C(=O)N[C@@H](CC(N)=O)C(=O)N[C@@H]([C@@H](C)O)C(=O)N[C@@H](C)C(=O)N[C@@H]([C@@H](C)O)C(=O)N1)[C@@H](C)O)C(=O)N1CCC[C@H]1C(=O)N[C@@H](CO)C(=O)N[C@@H](CO)C(=O)N[C@H](C(=O)N[C@@H](CC(N)=O)C(=O)N[C@H](C(=O)NCC(=O)N[C@@H](Cc1c[nH]cn1)C(=O)N[C@@H](CC(N)=O)C(=O)N[C@H](C(=O)N[C@@H](Cc1ccc(O)cc1)C(N)=O)[C@@H](C)O)C(C)C)[C@@H](C)O, Synthetic acylated analogue of human amylin; also called compound 17) | 2.35 nM |  |  |  |  |
| KCNTATCATQRLANFLRHSSPNFGAIPSSTNVGHNTY (C20 diacid-gGlu on the alpha amino group of N-terminal Lys1; disulfide bridge Cys2-Cys7 and C-terminal amide as in human amylin, Synthetic acylated analogue of human amylin; also called compound 40) [N^α1-[(4S)-4-carboxy-4-(19-carboxynonadecanoylamino)butanoyl]-[Arg17,Pro21,Pro27,His34]-h-amylin] | 2.68 nM |  |  |  |  |
| KCNTATCATQRLADFLRHSSPNFGAIPSSTNVGSRTY-NH2 (disulfide 2-7 (inferred)) [[Asp14,Arg17,Pro21,Pro27,Arg35]-h-amylin] |  | 30.9 nM |  |  |  |
| K([γGlu-C20 diacid])CNTATCATQRLAHFLRHSSPNFGAIPSSTNVGPNTY-NH2 (disulfide 2-7; N-terminus assumed; SMILES CC[C@H](C)[C@H](NC(=O)[C@H](C)NC(=O)CNC(=O)[C@H](Cc1ccccc1)NC(=O)[C@H](CC(N)=O)NC(=O)[C@@H]1CCCN1C(=O)[C@H](CO)NC(=O)[C@H](CO)NC(=O)[C@H](Cc1c[nH]cn1)NC(=O)[C@H](CCCNC(=N)N)NC(=O)[C@H](CC(C)C)NC(=O)[C@H](Cc1ccccc1)NC(=O)[C@H](Cc1c[nH]cn1)NC(=O)[C@H](C)NC(=O)[C@H](CC(C)C)NC(=O)[C@H](CCCNC(=N)N)NC(=O)[C@H](CCC(N)=O)NC(=O)[C@@H](NC(=O)[C@H](C)NC(=O)[C@@H]1CSSC[C@H](NC(=O)[C@@H](N)CCCCNC(=O)CC[C@H](NC(=O)CCCCCCCCCCCCCCCCCCC(=O)O)C(=O)O)C(=O)N[C@@H](CC(N)=O)C(=O)N[C@@H]([C@@H](C)O)C(=O)N[C@@H](C)C(=O)N[C@@H]([C@@H](C)O)C(=O)N1)[C@@H](C)O)C(=O)N1CCC[C@H]1C(=O)N[C@@H](CO)C(=O)N[C@@H](CO)C(=O)N[C@H](C(=O)N[C@@H](CC(N)=O)C(=O)N[C@H](C(=O)NCC(=O)N1CCC[C@H]1C(=O)N[C@@H](CC(N)=O)C(=O)N[C@H](C(=O)N[C@@H](Cc1ccc(O)cc1)C(N)=O)[C@@H](C)O)C(C)C)[C@@H](C)O, also called compound 67) |  |  | 51.6 | 0.09 nM | 4.63 nM |
| {C20 diacid-γGlu}-GRCNTATCATQRLAHFLRHSSPNFGAIPSSTNVGSNTY-NH2 (disulfide 3-8; SMILES CC[C@H](C)[C@H](NC(=O)[C@H](C)NC(=O)CNC(=O)[C@H](Cc1ccccc1)NC(=O)[C@H](CC(N)=O)NC(=O)[C@@H]1CCCN1C(=O)[C@H](CO)NC(=O)[C@H](CO)NC(=O)[C@H](Cc1c[nH]cn1)NC(=O)[C@H](CCCNC(=N)N)NC(=O)[C@H](CC(C)C)NC(=O)[C@H](Cc1ccccc1)NC(=O)[C@H](Cc1c[nH]cn1)NC(=O)[C@H](C)NC(=O)[C@H](CC(C)C)NC(=O)[C@H](CCCNC(=N)N)NC(=O)[C@H](CCC(N)=O)NC(=O)[C@@H](NC(=O)[C@H](C)NC(=O)[C@@H]1CSSC[C@H](NC(=O)[C@H](CCCNC(=N)N)NC(=O)CNC(=O)CC[C@H](NC(=O)CCCCCCCCCCCCCCCCCCC(=O)O)C(=O)O)C(=O)N[C@@H](CC(N)=O)C(=O)N[C@@H]([C@@H](C)O)C(=O)N[C@@H](C)C(=O)N[C@@H]([C@@H](C)O)C(=O)N1)[C@@H](C)O)C(=O)N1CCC[C@H]1C(=O)N[C@@H](CO)C(=O)N[C@@H](CO)C(=O)N[C@H](C(=O)N[C@@H](CC(N)=O)C(=O)N[C@H](C(=O)NCC(=O)N[C@@H](CO)C(=O)N[C@@H](CC(N)=O)C(=O)N[C@H](C(=O)N[C@@H](Cc1ccc(O)cc1)C(N)=O)[C@@H](C)O)C(C)C)[C@@H](C)O, also called compound 99) |  |  | 100 | 0.348 nM | 35 nM |
